The assay addresses portions of the MUC16 extracellular domain (ECD) (UniProt Q8NEV4). As to the kind of experiment: surface plasmon resonance with portions of the MUC16 ECD. A general note: In SPR one partner is held on a chip, and binding of the other changes the refractive index at the surface.

B1: A117C thio hu anti-MUC16 3A5 humanized variant (antibody, human IgG1, kappa, V domains shown)
VH: EVQLVESGGGLVQPGGSLRLSCAASGYSITNDYAWNWVRQAPGKGLEWVGYISYSGYTTYNPSLKSRFTISRDTSKNTLYLQMNSLRAEDTAVYYCARWTSGLDYWGQGTLVTVSS
VL: DIQMTQSPSSLSASVGDRVTITCKASDLIHNWLAWYQQKPGKAPKLLIYGATSLETGVPSRFSGSGSGTDFTLTISSLQPEDFATYYCQQYWTTPFTFGQGTKVEIKR
notes: Full-length IgG expressed in CHO cells; Kabat A114C, Eu A118C) change; also called thio hu anti-MUC16 HC A117C 3A5; A117C thio hu 3A5
The term Kd denotes the constant that tells how readily two partners part at equilibrium. The low end stands for a tighter complex, the high end for a looser complex. B1 yielded a Kd of 0.116 nM.

Values taken from USRE47194 (Genentech, dated 2019).
